{"source": "patent US20150307569", "about": "“HETEROGENEOUS NUCLEAR RIBONUCLEOPROTEIN A2* (HNRNP A2*) AND NUCLEIC ACID ENCODING THE SAME” (Institute of Zoology, Chinese Academy of Sciences, published 2015)", "binders": {"B1": {"name": "double-stranded (TTAGGG)3 (dsDNA)", "DNA 1": "TTAGGGTTAGGGTTAGGG", "DNA 2": "CCCTAACCCTAACCCTAA"}}, "key": {"[1]": {"molecular_target": "T1, hnRNP A2* (hnRNP A2 isoform lacking exons 7-9) (Rattus norvegicus)", "T1 sequence (chain, as listed by the source)": "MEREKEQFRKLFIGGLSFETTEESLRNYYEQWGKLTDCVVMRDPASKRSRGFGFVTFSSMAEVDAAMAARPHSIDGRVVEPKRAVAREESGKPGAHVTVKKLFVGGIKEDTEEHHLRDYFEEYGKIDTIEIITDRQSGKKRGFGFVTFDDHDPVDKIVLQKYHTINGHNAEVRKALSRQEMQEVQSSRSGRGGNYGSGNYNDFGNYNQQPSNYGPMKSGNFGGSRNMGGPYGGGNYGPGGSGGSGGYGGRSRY", "test": "EMSA; per text", "conditions": "tags: His6 (pET-28b, E. coli BL21(DE3)); label: 5' 32P", "protocol": "(§1) 80 nM oligonucleotides having 5′ ends labeled with [γ-³²P] ATP (³²P-labeled oligonucleotides) were incubated with 400 nM recombinant hnRNP A2* at 4° C. for 30 min in a binding buffer [10 mM Tris(hydroxymethyl)metyl aminomethane (Tris) (pH 8.0), 1 mM ethylenediaminetetraacetic acid (EDTA), and 150 mM KCl] and resolved on a 8% (wt/vol) native PAGE gel. The gel was then visualized by phosphoimaging using a Typhoon PhosphorImager.\n(§2) The cDNA encoding hnRNP A2* was cloned and expressed in Escherichia coli, producing a recombinant protein with the expected molecular mass (FIG. 2A). The exons 7-9 coded the glycine-rich domain (GRD) and provided additional DNA/RNA binding sites in addition to two RNA recognition sites (RRM). […] This is in contrast to hnRNP which has a broad DNA-binding specificity with the consensus sequence N(A,C,T)(C,T)(A,G)G(C,G,T)(A,T)NNN. […] The binding specificity of hnRNP A2* was further verified by constructing 10 mutant variants of the MBS, each carrying a single mutation to cytosine at each nucleotide. All the mutations within the MBS abolished the bindings except the mutations of thymines in the vicinity of GGG (FIG. 2E)."}, "[2]": {"molecular_target": "T1, hnRNP A2* (hnRNP A2 isoform lacking …)", "test": "EMSA; thymine next to G-tract tolerated", "conditions": "tags: His6 (pET-28b, E. coli BL21(DE3)); label: 5' 32P", "protocol": "as §1, §2"}, "[3]": {"molecular_target": "T1, hnRNP A2* (hnRNP A2 isoform lacking …)", "test": "competition; very low or no binding", "conditions": "tags: His6 (pET-28b, E. coli BL21(DE3))", "protocol": "as §1, §2"}, "[4]": {"molecular_target": "T1, hnRNP A2* (hnRNP A2 isoform lacking …)", "test": "EMSA; per text: all MBS mutations abolish except thymines near GGG", "conditions": "tags: His6 (pET-28b, E. coli BL21(DE3)); label: 5' 32P", "protocol": "as §1, §2"}, "[5]": {"molecular_target": "T1, hnRNP A2* (hnRNP A2 isoform lacking …)", "test": "EMSA; minimal binding site", "conditions": "tags: His6 (pET-28b, E. coli BL21(DE3)); label: 5' 32P", "protocol": "as §1, §2"}, "[6]": {"molecular_target": "28-kDa telomeric DNA-binding protein (hnRNP A2*), rat liver nuclear matrix (Rattus norvegicus)", "sequence (chain, as listed by the source)": "as above", "test": "Southwestern blot", "conditions": "label: 5' 32P"}, "[7]": {"molecular_target": "T1, hnRNP A2* (hnRNP A2 isoform lacking …)", "test": "EMSA; 10 mM Tris pH 8.0, 1 mM EDTA, 150 mM KCl, 4 C; 400 nM protein, 80 nM DNA", "conditions": "tags: His6 (pET-28b, E. coli BL21(DE3)); label: 5' 32P", "protocol": "as §1, §2"}, "[8]": {"molecular_target": "T1, hnRNP A2* (hnRNP A2 isoform lacking …)", "test": "EMSA; G-quadruplex substrate complex; stimulates telomerase", "conditions": "tags: His6 (pET-28b, E. coli BL21(DE3)); G4", "protocol": "as §1"}, "[9]": {"molecular_target": "T1, hnRNP A2* (hnRNP A2 isoform lacking …)", "test": "EMSA; 150 mM KCl, 4 C", "conditions": "tags: His6 (pET-28b, E. coli BL21(DE3)); label: 5' 32P", "protocol": "as §1, §2"}}}
{"binder": "TAGGGTTAGCGTTAG (ssDNA, [none])", "note": "[15-mer G10C]", "values": [{"measurement": "binding result", "setting": "[1]", "result": "no binding"}]}
{"binder": "TAGGGCTAGGGTTAG (ssDNA, [none])", "note": "[15-mer T6C]", "values": [{"measurement": "binding result", "setting": "[2]", "result": "binds"}]}
{"binder": "TAAGGGTAAGGGTAAGGG (ssDNA)", "note": "[(TAAGGG)3]", "values": [{"measurement": "binding result", "setting": "[3]", "result": "no binding"}]}
{"binder": "TCGGGTTAGGGTTAG (ssDNA, [none])", "note": "[15-mer A2C]", "values": [{"measurement": "binding result", "setting": "[4]", "result": "no binding"}]}
{"binder": "B1", "values": [{"measurement": "binding result", "setting": "[3]", "result": "no binding"}]}
{"binder": "TAGGGTTCGGGTTAG (ssDNA, [none])", "note": "[15-mer A8C]", "values": [{"measurement": "binding result", "setting": "[1]", "result": "no binding"}]}
{"binder": "TACGGTTAGGGTTAG (ssDNA, [none])", "note": "[15-mer G3C]", "values": [{"measurement": "binding result", "setting": "[1]", "result": "no binding"}]}
{"binder": "TAGGCTTAGGGTTAG (ssDNA, [none])", "note": "[15-mer G5C]", "values": [{"measurement": "binding result", "setting": "[1]", "result": "no binding"}]}
{"binder": "TAGGGTTACGGTTAG (ssDNA, [none])", "note": "[15-mer G9C]", "values": [{"measurement": "binding result", "setting": "[1]", "result": "no binding"}]}
{"binder": "TAGCGTTAGGGTTAG (ssDNA, [none])", "note": "[15-mer G4C]", "values": [{"measurement": "binding result", "setting": "[1]", "result": "no binding"}]}
{"binder": "TAGGGTTAGG (ssDNA)", "note": "[MBS]", "values": [{"measurement": "binding result", "setting": "[5]", "result": "binds"}]}
{"binder": "TTAGGGTTAGGGTTAGGG (ssDNA)", "note": "[(TTAGGG)3]", "values": [{"measurement": "binding result", "setting": "[6]", "result": "binds"}, {"measurement": "binding result", "setting": "[7]", "result": "binds"}]}
{"binder": "GGGCTAGGGCTAGGGCTAGGGAGTT (structured_DNA)", "note": "[TSG4]", "values": [{"measurement": "binding result", "setting": "[8]", "result": "binds"}]}
{"binder": "TAGGGTTAGGGTTAG (ssDNA)", "note": "[MBS-containing 15-mer W]", "values": [{"measurement": "binding result", "setting": "[9]", "result": "binds"}]}
{"binder": "TTAGAGTTAGAGTTAGAG (ssDNA)", "note": "[(TTAGAG)3]", "values": [{"measurement": "binding result", "setting": "[3]", "result": "no binding"}]}
{"binder": "TTGGGGTTGGGGTTGGGG (ssDNA)", "note": "[(TTGGGG)3]", "values": [{"measurement": "binding result", "setting": "[3]", "result": "no binding"}]}
